As a reminder, the EC50 is the concentration at which the effect is half-maximal.

The values that follow come from US6416758.

This experiment addresses VEGF:sFlk-1 complex (VEGF associated with its receptor) (human; mouse) (UniProt P15692). As to the kind of experiment: capture ELISA: antibody coated on wells, VEGF complexed with biotinylated sFlk-1 titrated, peroxidase-avidin; concentration giving 50% maximal binding; extrapolated value (*).

Sequence of VEGF:sFlk-1 complex (VEGF associated with its receptor) (human; mouse) (P15692 other isoform, or with tags, fused parts or gaps limits assumed, chain 1 of 2): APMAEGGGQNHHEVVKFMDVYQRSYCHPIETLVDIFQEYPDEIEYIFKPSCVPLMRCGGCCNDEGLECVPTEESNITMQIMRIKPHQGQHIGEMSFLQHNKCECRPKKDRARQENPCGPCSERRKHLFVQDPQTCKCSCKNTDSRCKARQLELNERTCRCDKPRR
Sequence of VEGF:sFlk-1 complex (VEGF associated with its receptor) (human; mouse) (P35918 20-762 limits assumed, chain 2 of 2, further chain): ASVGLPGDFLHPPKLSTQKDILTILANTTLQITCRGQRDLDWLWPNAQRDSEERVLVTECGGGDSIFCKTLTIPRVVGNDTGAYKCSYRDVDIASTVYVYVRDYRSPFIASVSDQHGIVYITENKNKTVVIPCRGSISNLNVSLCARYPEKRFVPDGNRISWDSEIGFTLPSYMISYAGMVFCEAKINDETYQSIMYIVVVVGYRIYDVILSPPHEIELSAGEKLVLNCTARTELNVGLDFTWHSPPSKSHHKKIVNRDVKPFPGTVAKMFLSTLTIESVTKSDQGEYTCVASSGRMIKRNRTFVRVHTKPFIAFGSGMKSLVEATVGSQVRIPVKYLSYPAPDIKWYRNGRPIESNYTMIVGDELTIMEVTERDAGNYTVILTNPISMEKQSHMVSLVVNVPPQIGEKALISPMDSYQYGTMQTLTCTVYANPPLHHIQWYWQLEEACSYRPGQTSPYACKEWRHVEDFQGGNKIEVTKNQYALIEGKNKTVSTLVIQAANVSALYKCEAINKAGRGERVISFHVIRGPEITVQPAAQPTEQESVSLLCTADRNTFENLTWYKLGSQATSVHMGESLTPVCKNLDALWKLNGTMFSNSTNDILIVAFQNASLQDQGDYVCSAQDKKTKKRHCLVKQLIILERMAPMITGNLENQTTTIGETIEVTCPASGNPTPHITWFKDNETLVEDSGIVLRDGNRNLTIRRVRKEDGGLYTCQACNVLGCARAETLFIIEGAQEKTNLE
Sequence of A4.6.1 (mouse anti-human VEGF monoclonal antibody, Genentech) (VH): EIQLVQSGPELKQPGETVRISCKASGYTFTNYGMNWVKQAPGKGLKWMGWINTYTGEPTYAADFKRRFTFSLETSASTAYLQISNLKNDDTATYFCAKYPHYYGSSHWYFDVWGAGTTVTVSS
Sequence of A4.6.1 (mouse anti-human VEGF monoclonal antibody, Genentech) (VL): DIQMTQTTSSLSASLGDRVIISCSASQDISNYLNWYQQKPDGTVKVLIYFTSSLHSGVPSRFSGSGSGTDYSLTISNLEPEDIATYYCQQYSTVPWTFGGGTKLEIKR

For the substance “A4.6.1 (mouse anti-human VEGF monoclonal antibody, Genentech)”, the EC50 was 500 nM.
